First the molecules themselves.
T1: raver1 RRM1-3 (UniProt Q8IY67 39-321)
T1 sequence: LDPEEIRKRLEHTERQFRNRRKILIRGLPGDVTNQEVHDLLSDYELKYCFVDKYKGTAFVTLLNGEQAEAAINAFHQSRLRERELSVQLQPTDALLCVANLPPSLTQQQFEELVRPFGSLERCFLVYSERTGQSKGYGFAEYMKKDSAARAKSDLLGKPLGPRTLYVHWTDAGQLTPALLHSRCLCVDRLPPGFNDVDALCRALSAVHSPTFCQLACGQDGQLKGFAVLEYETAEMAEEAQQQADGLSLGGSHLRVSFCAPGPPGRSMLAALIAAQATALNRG

T2: raver1 RRM2-RRM3 (UniProt Q8IY67 129-321)
T2 sequence: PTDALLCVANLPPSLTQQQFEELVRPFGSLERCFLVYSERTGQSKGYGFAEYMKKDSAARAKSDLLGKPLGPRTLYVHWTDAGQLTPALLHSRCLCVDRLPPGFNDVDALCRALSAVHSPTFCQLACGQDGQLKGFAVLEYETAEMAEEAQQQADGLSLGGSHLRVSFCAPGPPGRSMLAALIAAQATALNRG

T3: full-length human metavinculin (human, UniProt P18206 1-1134)
T3 sequence (looked up): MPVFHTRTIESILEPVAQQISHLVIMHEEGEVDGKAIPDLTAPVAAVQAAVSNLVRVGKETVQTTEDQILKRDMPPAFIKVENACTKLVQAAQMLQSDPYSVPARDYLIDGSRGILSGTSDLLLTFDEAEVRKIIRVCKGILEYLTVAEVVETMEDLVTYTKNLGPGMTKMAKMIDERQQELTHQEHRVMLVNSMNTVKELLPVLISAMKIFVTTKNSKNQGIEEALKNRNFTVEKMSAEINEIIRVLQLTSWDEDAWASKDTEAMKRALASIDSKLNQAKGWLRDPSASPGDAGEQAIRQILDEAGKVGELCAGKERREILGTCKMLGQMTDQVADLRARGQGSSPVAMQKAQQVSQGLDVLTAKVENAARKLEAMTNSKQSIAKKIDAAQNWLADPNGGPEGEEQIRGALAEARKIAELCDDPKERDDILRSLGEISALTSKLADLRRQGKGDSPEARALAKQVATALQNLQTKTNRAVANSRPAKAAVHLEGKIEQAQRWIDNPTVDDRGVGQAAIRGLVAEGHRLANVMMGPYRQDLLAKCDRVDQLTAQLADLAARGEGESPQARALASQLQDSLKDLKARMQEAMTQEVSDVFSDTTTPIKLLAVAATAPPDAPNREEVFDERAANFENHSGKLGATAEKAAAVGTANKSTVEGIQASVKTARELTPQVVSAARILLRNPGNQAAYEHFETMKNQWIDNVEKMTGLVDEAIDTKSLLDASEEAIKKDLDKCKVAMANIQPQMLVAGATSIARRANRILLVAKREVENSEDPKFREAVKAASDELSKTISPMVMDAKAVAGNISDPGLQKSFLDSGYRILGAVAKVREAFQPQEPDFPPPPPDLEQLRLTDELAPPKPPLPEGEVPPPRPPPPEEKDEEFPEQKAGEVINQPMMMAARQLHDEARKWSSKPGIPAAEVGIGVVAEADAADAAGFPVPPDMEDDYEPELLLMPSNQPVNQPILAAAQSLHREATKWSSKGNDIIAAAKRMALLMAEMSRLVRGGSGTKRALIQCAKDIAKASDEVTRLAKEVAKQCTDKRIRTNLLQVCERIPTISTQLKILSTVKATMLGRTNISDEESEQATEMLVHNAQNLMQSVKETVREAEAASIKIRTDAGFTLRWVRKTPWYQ

B1: MVt (metavinculin tail domain, residues 856-1134) (domain or fragment, human, UniProt P18206 856-1134, looked up)
chain: DELAPPKPPLPEGEVPPPRPPPPEEKDEEFPEQKAGEVINQPMMMAARQLHDEARKWSSKPGIPAAEVGIGVVAEADAADAAGFPVPPDMEDDYEPELLLMPSNQPVNQPILAAAQSLHREATKWSSKGNDIIAAAKRMALLMAEMSRLVRGGSGTKRALIQCAKDIAKASDEVTRLAKEVAKQCTDKRIRTNLLQVCERIPTISTQLKILSTVKATMLGRTNISDEESEQATEMLVHNAQNLMQSVKETVREAEAASIKIRTDAGFTLRWVRKTPWYQ
B2: raver1 RRM1-3 domains (residues 39-321) (domain or fragment, human, UniProt Q8IY67 39-321, looked up)
chain: T1 sequence

Data set [1] addresses metavinculin tail MVt;raver1 RRM1-3 (Homo sapiens;Homo sapiens?, UniProt P18206;Q8IY67 856-1134;39-321, |). The experiment in a line: EMSA. On the technique in general: In EMSA bound probe runs differently from free probe, usually more slowly.
In another data set the target is T1, raver1 RRM1-3. The data set can be described thus: EMSA.
For the next data set, the target named is T2, raver1 RRM2-RRM3. The experiment in a line: EMSA.
Data set [2] has as its target B2. The experiment in a line: native gel or EMSA.
In data set [3] the target is T3, full-length human metavinculin. The data set can be described thus: native gel or EMSA.

With UCAUGCAGUCUG (ssRNA) [vinculin RNA 3089-3100], the values for the binding result (in data set [1]; with raver1 RRM1-3; with raver1 RRM2-RRM3) were “binds”, “binds” and “no binding”, respectively.

Take B1: the binding result in data set [2] is recorded as “binds”.

On to B2, for which the binding result in data set [3] is “binds”.

These data come from PMC3835166 (Journal of molecular biology, 2012).
